Assay results from patent US6593454B2, “Methods for identifying inhibitors of methionine aminopeptidases” (Saint Louis University, priority 1999, dated 2003).

How the values were obtained:
[1] = substrate: CSCC[C@H](N)C(=O)NCC(=O)N1CCC[C@H]1C(=O)Nc1ccc([N+](=O)[O-])cc1; experiment: AccQ-Tag assay, kinetic parameters of the substrate peptide with type 1 MAP; format: biochemical; conditions: other: yeast type 1 MAP; substrate Met-Gly-Pro-p-nitroanilide; mean ± SD
Text: (§1) To determine whether Met-Gly-Pro-p-nitroanilide is a substrate for MAP, and whether the presence of dipeptidyl peptidase could affect the activity of MAP, an AccQ-Tag assay was used as described in Zuo et al., supra.

[2] = substrate: CSCC[C@H](N)C(=O)NCC(=O)N1CCC[C@H]1C(=O)Nc1ccc([N+](=O)[O-])cc1; experiment: AccQ-Tag assay, kinetic parameters of the substrate peptide with type 2 MAP; format: biochemical; conditions: other: human type 2 MAP; substrate Met-Gly-Pro-p-nitroanilide; mean ± SD
Text: as §1

B1: yeast type 1 MAP (Saccharomyces cerevisiae S288C) (protein)
chain: MSTATTTVTTSDQASHPTKIYCSGLQCGRETSSQMKCPVCLKQGIVSIFCDTSCYENNYKAHKALHNAKDGLEGAYDPFPKFKYSGKVKASYPLTPRRYVPEDIPKPDWAANGLPVSEQRNDRLNNIPIYKKDQIKKIRKACMLGREVLDIAAAHVRPGITTDELDEIVHNETIKRGAYPSPLNYYNFPKSLCTSVNEVICHGVPDKTVLKEGDIVNLDVSLYYQGYHADLNETYYVGENISKEALNTTETSRECLKLAIKMCKPGTTFQELGDHIEKHATENKCSVVRTYCGHGVGEFFHCSPNIPHYAKNRTPGVMKPGMVFTIEPMINEGTWKDMTWPDDWTSTTQDGKLSAQFEHTLLVTEHGVEILTARNKKSPGGPRQRIK
Km [1]: 4 ± 0.7 mM | kcat [1]: 14.4 ± 0.417 s⁻¹ | kcat/Km [1]: 3600 ± 583 M⁻¹ s⁻¹

B2: human type 2 MAP (Homo sapiens) (protein)
chain: MAGVEEVAASGSHLNGDLDPDDREEGAASTAEEAAKKKRRKKKKSKGPSAAGEQEPDKESGASVDEVARQLERSALEDKERDEDDEDGDGDGDGATGKKKKKKKKKRGPKVQTDPPSVPICDLYPNGVFPKGQECEYPPTQDGRTAAWRTTSEEKKALDQASEEIWNDFREAAEAHRQVRKYVMSWIKPGMTMIEICEKLEDCSRKLIKENGLNAGLAFPTGCSLNNCAAHYTPNAGDTTVLQYDDICKIDFGTHISGRIIDCAFTVTFNPKYDTLLKAVKDATNTGIKCAGIDVRLCDVGEAIQEVMESYEVEIDGKTYQVKPIRNLNGHSIGQYRIHAGKTVPIVKGGEATRMEEGEVYAIETFGSTGKGVVHDDMECSHYMKNFDVGHVPIRLPRTKHLLNVINENFGTLAFCRRWLDRLGESKYLMALKNLCDLGIVDPYPPLCDIKGSYTAQFEHTILLRPTCKEVVSRGDDY
Km [2]: 3 ± 0.5 mM | kcat [2]: 8.63 ± 0.583 s⁻¹ | kcat/Km [2]: 2870 ± 433 M⁻¹ s⁻¹
